The DeepSol protein solubility set

Assay: soluble on expression in E. coli; label from the status in PepcDB or PDB records

Row | Sequence | soluble on expression in E. coli
1 | MSLQVVIKFGGTSVSTRATWNNIAAITQKHLNTGVQPVIVCSALTQISNKLEKAIEAALLDEHHSLFNDIQSSHLNLAEQLEVNHQLIANDLHQLQQWLTGISLLKQAPAKTHAQILSLGELMMTRMGHAFLERHEIKVKWYDARELLTSTPTLGGETMNYLSARCESEYDPGLVEKFLSSGAQAIITQGFFAANPHGETVLLGRGGSDTSAALLAGKLQAASCEIWTDVPGIYTANPHQLPHARLLKQLNYDEAQEIASMGAKVLHPNCIPPVRKANIPMVVKYTHLPEHSGTLITKDIDESAPLIKSIQVKHSILLISIDTLNMWQQVGFLADVFAAFKKHGFSVDLLSSSEFNVTLSLDVNAKIHDRPAINALLDDLNQFGRAKLIEPCSAVSLVGHHIRTVLPHLGPALEVFEAKQVYLMSLASNDLNLTFVVDESHADKLCQRLHHLLIESNPQIFYYSKSWHEEFGKPNVRPTPWWEIERDRLLTTSAIHSPCYVYHSPTQAIRARQLSALESIDSLFYAVKANPFPSILKTLEKEGIGFECVSIQELELVLKLFPNIKKERILFTPNFAPKSEYEFALQTGCYVTIDSLYPLENWPELFKNREVIVRIDPGTGAGHHKHVSTGGNESKFGITQNDISKILSLTKSNHIKVIGLHAHSGSGILSTDLWQQTAVMLASLTDQFPEVRSINLGGGLGIVEKPGQHPIDFAALDAQLMAVKSQYPGLAIWLEPGRFFVAESGVILAKVTQCKEKGKVKFIGIETGMNSLIRPSLYGAYHEIVNLTRLHEEKAGFAHIVGPICESGDTLGYDRLLPVTKEGDVILIANTGAYGHCMSSHYNLRPPAQEIVLEEGHHHHHH | soluble
2 | MSLGHIIVTGAGSGLGRALTIGLVERGHQVSMMGRRYQRLQQQELLLGNAVIGIVADLAHHEDVDVAFAAAVEWGGLPELVLHCAGTGEFGPVGVYTAEQIRRVMESNLVSTILVAQQTVRLIGERGGVLANVLSSAAQVGKANESLYCASKWGMRGFLESLRAELKDSPLRLVNLYPSGIRSEFWDNTDHVDPSGFMTPEDAAAYMLDALEARSSCHVTDLFIGRNEGHHHHHH | soluble
3 | MIGKRFFQTTSKKIAFAFDIDGVLFRGKKPIAGASDALKLLNRNKIPYILLTNGGGFSERARTEFISSKLDVDVSPLQIIQSHTPYKSLVNKYSRILAVGTPSVRGVAEGYGFQDVVHQTDIVRYNRDIAPFSGLSDEQVMEYSRDIPDLTTKKFDAVLVFNDPHDWAADIQIISDAINSENGMLNTLRNEKSGKPSIPIYFSNQDLLWANPYKLNRFGQGAFRLLVRRLYLELNGEPLQDYTLGKPTKLTYDFAHHVLIDWEKRLSGKIGQSVKQKLPLLGTKPSTSPFHAVFMVGDNPASDIIGAQNYGWNSCLVKTGVYNEGDDLKECKPTLIVNDVFDAVTKTLEKYA | soluble
4 | MTTDIRPLLVELFTEELPPKALQKLGQAFAEGVRATLARHHLLADGCAVEPFATPRRLAVRLSAVLAQAPEQAYAEKLMPVKVGLDANGQPTAALAKKLAAKGLEGLDPATLERESDGKQEYLVARGTAAGAQLAVGLQEGLDAAIDGLPIPKVMRYQLADGQTTVKFVRPAHGLVALFGADIVPIAALGLQAGRATQGHRFQSNGAIELATAQGYEADLAERGRVIASFEARRAEISRLLDEHAQRLGATLGDDPEVTALLDEVTALVEHPTVYVGQFEEQFLQVPQECLILTMRLNQKYFPLFDPASGKLTHRFLIVSNMQVADPANIVEGNQRVVRPRLADAQFFFETDRKTPLAARVEQLGSIVYHNKLSTQLERVERVRAIARGIATALGGDAAHCDRAALLAKADLGSNMVGEFPELQGIMGAYYAQGDGEPADVVTALRTQYRNRYDAPVDAATLTAATLFIAERIETLVGIWSIGLAPTGERDPFGLRRAALGLISAFEQLAAGGWLKVSEDGPLSLDGLLALAAQAFPDGKIGADTLAEVRAFIYERYRNQLIGEHDRNAVEAVIALAPPL | not soluble
5 | MIKISYSPYTLKPVQSLNAATAATAREGVLLKVEWNDGLYGFADLHPWPELGDLSLEEQLSDLRMGRMTTQIEQSIWLARRDALLRKEKKHVFDGGEKIKNNYLLSHFQDLKPGFLDGLKNEGYNTVKVKMGRDLQKEADMLTHIAASGMRMRLDFNALGSWQTFEKFMVNLPLTVRPLIEYVEDPFPFDFHAWGEARKLAKIALDNQYDKVPWGKIASAPFDVIVIKPAKTDVDKAVAQCQKWNLKLAVTSYMDHPVGVVHAVGVAMELKDKYGDMILESGCLTHRLYQMDSFAAELSTQGPYLLKNKGTGVGFDKLLEALTWYQLKVR | soluble
6 | MRFFYDTEFIEDGETIDLVSIGIVCEDGREYYAVSTDADHSRANKWVRDNVLDKMPNPSSTLWKSNATIRQEVYEFLTSTPGNTELWAWVGAYDHVVLAQLWGDMRGLPKELPRYTHELKQYWEMAGRPRLPKLPEGNHDALVDARHNLQKFKICAESLPLNKRNVVNR | not soluble
7 | MAHHHHHHMAMKDAVWLGKPVDVTGEDLCSVYTSRIGGTATLFRETADYSVFRCPKCNSMNTVSLLAQIYAPLDVYDRLLYVLTCSTCSTEQSTFCFALRSQNFNPSYKNVSQTNDKGGCEDKRLLFEESADWGDGMDKGWDYDYKSVKSNTATEQRGNRSTVNEAIADDICSTEVPSSLAPPGSQPPIRGMRFPCFTLEVFEEPPKVKPKSAPFNIQLHEAQGKYGEDVVETTVLDEADEPLHEKLLRKYVERIGRVPSQCVRWGPSREPLQLSVISIVAPRCPYCGKKRRYELQLTSPIIYFLTKSNEKKHPLHFGNVLVFTCSGNCNTEAYALEYCFVEGEI | not soluble
8 | MKVVAFNGSPRKEGNTASLIKHVLAELDKEGIETEIVQIGGKSVHGCTACSKCFENRDRRCVIDNDIVNECIEKMLEADGIILASPTYFADLTPELKALIDRAGFVAKANSEMFRYKVGAAVVAVRRAGSIHVFDSINHFFTISQMIIPGSSYWNMGIGRAEGDVEKDDEGIRTMQILGQNMAWLLKKLNELEHHHHHH | not soluble
9 | SLTGKKAEEEYLYQLEQLNQLFTKTEALEESKIFYKNIKFERGLFASHIQDQIEIHKANETIIIPLSSTLYHGPLPLDRVAKLNFVPAIFSSQTLLGKNATTQAFFDITESEKPLQLNFAMNYSLSGNAELKLASGQYHNEQSKTDFDWSNVVLNIDLNQNTPNNYVLSVDTFNSNAPNHAVSTASSIKIKDLVVQGSLQSTKWPFIYSGNINSKIGYFEQNTESAESGEKFSLIQKNSQANLTTQVEGDTVNIINKTNLDELHINGNNLGKVTNNVEFNHIDGNALQELLNILVAIGKADSECLYLKHWCKNYNKQAWPLRIISLKLSLPLFLFLMKKAKWHWI | not soluble
10 | MEKHDICPSISEYSYHEILGFYINPVENHLASKNMLIDLDERSVEGLLIFIAECNLGIENRVMEHMNKGIRKCKDHRFT | not soluble
11 | MIKLVRIDYRLLHGQVVFAWTRALDIDHIIVANANAAGDAFVSMSLSLAKPAGVSLDIITVEQAAEKLASGKLDHKKVMVVLGNTAETLAFVEKVPGISVINYGGIAQKEGAQQFGKAIYLTEQEIADSQALKAKGIRLEMRQVPAHSAELLNDKL | not soluble
12 | MAIIIGADKAGQELKEVIKDYLKEGKYEVVDVSENEVRDFVDTTLAVVKEVNASDDNLGIVIDAYGVGSFMVATKIKGMVAAEVSDERSAYMTRGHNNARIITLGSEISAPGIAKNIIKGFVEGKYDGGRHQVRVDMLNKMC | soluble
13 | MGHHHHHHSHMENKMESIEQQVEVLLEQEPQLLPAAMAERLGVTEFDVVAALPQEMVAISPGEQAQTILESLVGFGPVTTIVHSFGSIFEVKAPFPKGKVARGYYNLMGREGELHGHLKLDNVKNIALVSKPFMGRESHYFGFFSECGSNIFKVYLGRDEKRELIAEQVTAFRAMQAELNQ | soluble
14 | GSHGLCKNLLQEYAQKMNYAIPLYQCQKVETLGRVTQFTCTVEIGGIKYTGAATRTKKDAEISAGRTALLAIQSDT | soluble
15 | MIQRLLNEENLLIGISELSEIAEVSPRQLRYWEEKGYISSIAKDANGPRKYRLHTVVKVHWIKRFLDEGYTLQSAVEKAEEQHRNVGMTKKIFSQMFHGISEVCPNYVAIDLGDFDEEQKLYVVFNETTEVSEYLLIPKDADVSDELKKRK | not soluble
